T1: recombinant human PS (rhPS) (human, UniProt P07225 42-676)
T1 sequence (looked up): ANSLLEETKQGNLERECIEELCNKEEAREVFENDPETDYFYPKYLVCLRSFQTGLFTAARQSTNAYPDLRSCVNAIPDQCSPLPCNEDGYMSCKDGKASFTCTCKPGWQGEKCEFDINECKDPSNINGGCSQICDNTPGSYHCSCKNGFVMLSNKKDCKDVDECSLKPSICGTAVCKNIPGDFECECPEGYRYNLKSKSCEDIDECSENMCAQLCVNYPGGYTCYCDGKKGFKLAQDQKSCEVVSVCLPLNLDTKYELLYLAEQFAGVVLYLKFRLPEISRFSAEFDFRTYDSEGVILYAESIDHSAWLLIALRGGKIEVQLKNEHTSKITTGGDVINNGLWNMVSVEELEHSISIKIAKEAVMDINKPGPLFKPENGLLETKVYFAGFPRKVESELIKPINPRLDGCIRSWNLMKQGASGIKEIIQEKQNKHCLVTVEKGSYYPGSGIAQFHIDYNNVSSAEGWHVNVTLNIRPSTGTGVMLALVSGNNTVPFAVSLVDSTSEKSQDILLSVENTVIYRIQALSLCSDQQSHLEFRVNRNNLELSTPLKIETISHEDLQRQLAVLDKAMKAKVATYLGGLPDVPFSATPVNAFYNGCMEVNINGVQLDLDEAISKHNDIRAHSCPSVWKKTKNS

T2: recombinant human Gas6 (rhGas6) (human, UniProt Q14393 49-678, limits assumed)
T2 sequence (looked up): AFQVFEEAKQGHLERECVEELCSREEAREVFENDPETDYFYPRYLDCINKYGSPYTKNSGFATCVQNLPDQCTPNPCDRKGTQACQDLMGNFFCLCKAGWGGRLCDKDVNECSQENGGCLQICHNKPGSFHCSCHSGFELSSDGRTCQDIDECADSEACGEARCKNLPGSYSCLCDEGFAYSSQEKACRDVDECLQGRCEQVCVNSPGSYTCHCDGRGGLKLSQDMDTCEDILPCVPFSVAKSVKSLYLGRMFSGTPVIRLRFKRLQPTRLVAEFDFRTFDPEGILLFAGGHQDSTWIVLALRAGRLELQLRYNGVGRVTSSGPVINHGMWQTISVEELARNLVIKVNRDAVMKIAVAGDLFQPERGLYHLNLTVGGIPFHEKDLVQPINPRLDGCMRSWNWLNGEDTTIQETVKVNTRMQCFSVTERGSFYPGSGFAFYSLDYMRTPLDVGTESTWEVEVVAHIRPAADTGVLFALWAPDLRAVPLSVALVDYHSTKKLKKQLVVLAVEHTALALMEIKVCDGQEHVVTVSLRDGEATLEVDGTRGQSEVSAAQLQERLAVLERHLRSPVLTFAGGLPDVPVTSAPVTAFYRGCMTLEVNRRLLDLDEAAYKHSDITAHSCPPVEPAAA

T3: recombinant murine PS (rmPS) (murine, UniProt Q08761 42-675)
T3 construct: also called recombinant murine protein S
T3 sequence (looked up): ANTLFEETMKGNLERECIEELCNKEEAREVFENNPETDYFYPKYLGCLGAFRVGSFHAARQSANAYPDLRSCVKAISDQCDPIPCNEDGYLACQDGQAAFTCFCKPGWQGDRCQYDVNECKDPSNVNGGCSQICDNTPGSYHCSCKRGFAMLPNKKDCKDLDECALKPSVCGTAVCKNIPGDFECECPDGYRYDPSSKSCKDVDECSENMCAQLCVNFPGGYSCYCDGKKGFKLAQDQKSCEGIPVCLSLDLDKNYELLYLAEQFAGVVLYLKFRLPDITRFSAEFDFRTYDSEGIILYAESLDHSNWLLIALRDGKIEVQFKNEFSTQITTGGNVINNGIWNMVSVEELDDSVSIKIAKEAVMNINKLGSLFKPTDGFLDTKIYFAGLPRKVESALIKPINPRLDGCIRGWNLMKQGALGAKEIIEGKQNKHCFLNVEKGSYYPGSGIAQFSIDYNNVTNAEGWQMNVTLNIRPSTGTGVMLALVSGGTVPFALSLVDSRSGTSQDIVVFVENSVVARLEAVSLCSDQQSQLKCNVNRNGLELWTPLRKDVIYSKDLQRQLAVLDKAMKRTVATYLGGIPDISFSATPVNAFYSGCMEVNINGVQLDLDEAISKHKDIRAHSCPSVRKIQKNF

B1: PS003 (VHH)
VHH: QVQLQESGGGLVQAGGSLRLSCAASGRTFSSYAMGWVRQAPGKEREFVAAISYNGGRTNYADSVKGRFTISRDNAKNTGYLQMNSLKPEDTAVYYCAANPRMWGSVDFRSWGQGTQVTVSS
notes: Llama VHH selected by phage display on rhPS; Purified form expressed from pET28 in E. coli with N-terminal His6-tag and C-terminal HA-tag; also called PS003 nanobody; monovalent PS003; not shown: N-terminal His6-tag from the pET28 format; C-terminal haemagglutinin (HA)-tag
B2: PS003biv (VHH)
chain: QVQLQESGGGLVQAGGSLRLSCAASGRTFSSYAMGWVRQAPGKEREFVAAISYNGGRTNYADSVKGRFTISRDNAKNTGYLQMNSLKPEDTAVYYCAANPRMWGSVDFRSWGQGTQVTVSSGGGSGGGSGGGSGGGSQVQLQESGGGLVQAGGSLRLSCAASGRTFSSYAMGWVRQAPGKEREFVAAISYNGGRTNYADSVKGRFTISRDNAKNTGYLQMNSLKPEDTAVYYCAANPRMWGSVDFRSWGQGTQVTVSS
notes: also called bivalent PS003; not shown: N-terminal His6-tag from the pET28 format; C-terminal haemagglutinin (HA)-tag

Assays:
[1] = target: T1, recombinant human PS (rhPS); experiment: cell-based or functional assay
[2] = target: T2, recombinant human Gas6 (rhGas6); experiment: direct ELISA on immobilized protein, anti-HA detection
Procedure: Vitamin K-dependent Gas6 is highly homologous to PS (47% overall homology) and, in contrast to other vitamin K-dependent proteins, also contains a SHBG-like domain. To further confirm the specificity of PS003 to PS, rhPS and rh Gas6 (60 μL, at 10 μg/mL in TBS containing 5 mM CaCl₂) were immobilized onto 96-well NUNC Maxisorp plates for 16 h at 4° C. Wells were washed with 3×200 μL of washing buffer (TBS containing 5 mM CaCl₂ and 0.1% Tween-20) and wells were blocked for 1 h at room temperature in TBS containing 5 mM CaCl₂ and 5% BSA. Wells were washed with 3×200 μL of washing buffer and increasing concentrations of PS003 (0-200 nM in TBS containing 5 mM CaCl₂ and 1% BSA, 50 μL/well) was incubated for 1 h at room temperature. Wells were washed with 3×200 μL of washing buffer, and a peroxidase-conjugated polyclonal anti-HA tag antibody (Abcam, 1 μg/mL in TBS containing 5 mM CaCl₂ and 1% BSA, 50 μL/well) was incubated for 1 h at room temperature. Wells were washed with 3×200 μL of washing buffer and 50 μL of TMB was added. Reactions were stopped by the addition of 50 μL of 2M H₂SO₄.

[3] = target: T1, recombinant human PS (rhPS); experiment: ELISA on rhPS immobilized at 0.6, 1.25, 2.5 and 5 µg/mL, method of Beatty et al. 1987
Procedure: FIG. 6: Comparison of PS003 and PS003biv binding to immobilized PS in direct ELISA. rhPS (60 μL at 2.5 μg/mL in TBS containing 5 mM CaCl₂)) was immobilized onto ELISA wells, and the binding of PS003 and PS003biv (0-200 nM) was analyzed with a peroxidase-conjugated polyclonal anti-His6 tag antibody. Three individual experiments were done in simplicate, and the results are expressed as percentage of maximal binding for each nanobody. […] To further compare the ability of PS003 and PS003biv to bind to PS, the affinity of PS003 and PS003biv for rhPS was estimated as described (Beatty et al. J Immunol Methods 1987), by obtaining similar binding curves on rhPS immobilized at increasing concentrations (0.6, 1.25, 2.5 and 5 μg/mL in TBS containing 5 mM CaCl₂) in three individual experiments done in simplicate. For each nanobody, the dissociation constant (KD) was determined by using a formula based on the Law of Mass Action.
To further compare the ability of PS003 and PS003biv to bind to PS, the affinity of PS003 and PS003biv for rhPS was estimated as described (Beatty et al. J Immunol Methods 1987), by obtaining binding curves on rhPS immobilized at increasing concentrations (0.6, 1.25, 2.5 and 5 μg/mL in TBS containing 5 mM CaCl₂) in three individual experiments done in simplicate. […]

[4] = target: T1, recombinant human PS (rhPS); experiment: ratio of ELISA-derived KD values, reference PS003
Procedure: To further compare the ability of PS003 and PS003biv to bind to PS, the affinity of PS003 and PS003biv for rhPS was estimated as described (Beatty et al. J Immunol Methods 1987), by obtaining binding curves on rhPS immobilized at increasing concentrations (0.6, 1.25, 2.5 and 5 μg/mL in TBS containing 5 mM CaCl₂) in three individual experiments done in simplicate. For each nanobody, the dissociation constant (KD) was determined by using a formula based on the Law of Mass Action.

[5] = target: T3, recombinant murine PS (rmPS); experiment: direct ELISA on immobilized rmPS (legend of FIG. 11)
Excerpt: FIG. 11: Comparison of PS003biv and PS004biv binding to immobilized recombinant murine PS in direct ELISA. PS004biv is an in-house anti-human PS nanobody generated from a monovalent nanobody (PS004) identified after a selection on rhPS immobilized onto ELISA wells. PS004biv strongly binds to rhPS in direct ELISA but, in contrast to PS003biv, its epitope is localized within the N-terminal part of PS and not within the SHBG-like domain of PS (data not shown). The binding of PS003biv and PS004biv to immobilized rmPS was analyzed by ELISA.
As for rhPS, recombinant murine PS (rmPS) was expressed in HEK293 cells in the presence of 10 μg/mL vitamin K1, and purified by a two-step anion-exchange chromatography, as previously described (Fernandez et al. 2009). rmPS (60 μL at 10 μg/mL in TBS containing 5 mM CaCl₂) was immobilized onto 96-well NUNC Maxisorp plates, for 16 h at 4° C. Wells were washed with 3×200 μL of washing buffer (TBS containing 5 mM CaCl₂) and 0.1% Tween-20) and wells were blocked for 1 h at room temperature with TBS containing 5 mM CaCl₂ and 5% BSA. Wells were washed with 3×200 μL of washing buffer and increasing concentrations of PS003biv and PS004biv (0-50 nM in TBS containing 5 mM CaCl₂ and 1% BSA, 50 μL/well) were incubated for 1 h at room temperature. […]

[6] = target: T2, recombinant human Gas6 (rhGas6); experiment: direct ELISA on immobilized rhGas6, anti-His6 detection
Procedure: FIG. 7: Epitope mapping of PS003biv and specificity of PS003biv for PS. Recombinant human PS (rhPS), a recombinant form of the PS SHBG-like region alone (rSHBG)), recombinant human Gas6 (rhGas6), or BSA (60 μL at 10 μg/mL in TBS containing 5 mM CaCl₂) were immobilized onto ELISA wells, and the binding of PS003biv (0.5 nM in TBS-0.1% Tween-5 mM CaCl₂)) was analyzed using a peroxidase-conjugated polyclonal anti-His6 tag antibody. The results are expressed as the percentage of the Abs_{450 nm} obtained on rhPS. Three individual experiments were done in simplicate.
Epitope mapping of PS003biv and specificity of PS003biv for PS rhPS, a recombinant form of the PS SHBG-like region alone (rSHBG) (Saposnik et al. 2003), recombinant human Gas6 (rhGas6), or BSA (60 μL at 10 μg/mL in 50 mM Tris, 150 mM NaCl, pH 7.4 (TBS) containing 5 mM CaCl₂) were immobilized onto 96-well NUNC Maxisorp plates, for 16 h at 4° C. Wells were washed with 3×200 μL of washing buffer (TBS containing 5 mM CaCl₂ and 0.1% Tween-20) and wells were blocked for 1 h at room temperature with TBS containing 5 mM CaCl₂ and 5% BSA. Wells were washed with 3×200 μL of washing buffer and 0.5 nM PS003biv (in TBS containing 5 mM CaCl₂, 0.1% Tween-20 and 2% BSA, 50 μL/well) were incubated for 1 h at room temperature. […] The results are expressed as the percentage of the Abs_{450 nm} obtained on rhPS. […]

Row | Binder | clotting times in APTT-based APC-cofactor activity plasma clotting assay (STACLOT PS); 6 nM rhPS, 2 µM nanobody [1] [fold] | binding result [2] | Kd [3] [nM] | fold higher affinity than PS003 [4] [fold] | binding result [5] | binding result [6]
1 | B1 | 2.8 | no binding (tested: 20 nM) | 26.8 |  |  | 
2 | B2 | 3.6 |  | 13.8 | 1.9 | binds | no binding (tested: 0.5 nM)

Source: US20230265211A1 (published 2023)
